The source of these data is US20250179172A1.

Test [1] deals with human CD5 (Arg25-Pro372)-His protein (Acro, Cat. No. CD5-H52H5) (human) (UniProt P06127). Briefly: ELISA on hCD5-His, antibody 10 nM.
Test [2] has as its target murine CD5-His (Sino Biologicals, Cat. No. 50403-M08H) (murine) (UniProt P13379). Description: ELISA on murine CD5-His, antibody '0.000' nM as printed.
In test [3] the target is human CD5 (Arg25-Pro372)-His protein (Acro, Cat. No. CD5-H52H5) (human) (UniProt P06127). Description: ELISA on hCD5-His, antibody 0.0001 nM.
Test [4] has as its target human CD5, full length, on cells (Jurkat, endogenous; CHO-K1-human CD5, transfected) (human) (UniProt P06127). Description: FACS on CHO-K1-hCD5-2B2 cells.
The target in test [5] is murine CD5-His (Sino Biologicals, Cat. No. 50403-M08H) (murine) (UniProt P13379). Description: ELISA on murine CD5-His, antibody 0.10 nM.
Test [6] has as its target human CD5, full length, on cells (Jurkat, endogenous; CHO-K1-human CD5, transfected) (human) (UniProt P06127). Briefly: FACS on Jurkat cells.
The target in test [7] is human CD5 (Arg25-Pro372)-His protein (Acro, Cat. No. CD5-H52H5) (human) (UniProt P06127). Briefly: ELISA on hCD5-His, antibody 100 nM.
Test [8] has as its target human CD5, full length, on cells (Jurkat, endogenous; CHO-K1-human CD5, transfected) (human) (UniProt P06127). Description: FACS on CHO-K1-hCD5-2C6 cells.
Test [9] concerns the target monkey CD5, full length, on HEK293T cells (monkey). Briefly: FACS on HEK293T-monkey CD5 cells.
The target of test [10] is human CD5, full length, on cells (Jurkat, endogenous; CHO-K1-human CD5, transfected) (human) (UniProt P06127). Description: FACS on CHO-K1-hCD5-2F8 cells.
Test [11] addresses human CD5 (Arg25-Pro372)-His protein (Acro, Cat. No. CD5-H52H5) (human) (UniProt P06127). Description: ELISA on hCD5-His, antibody 0.001 nM.
Test [12] addresses human CD5, full length, on cells (Jurkat, endogenous; CHO-K1-human CD5, transfected) (human) (UniProt P06127). Briefly: FACS on CHO-K1-human CD5 cells.
The target in test [13] is murine CD5-His (Sino Biologicals, Cat. No. 50403-M08H) (murine) (UniProt P13379). Briefly: ELISA on murine CD5-His, antibody 10.00 nM.
The target in test [14] is human CD5, full length, on cells (Jurkat, endogenous; CHO-K1-human CD5, transfected) (human) (UniProt P06127). Briefly: FACS on CHO-K1-hCD5-2E2 cells.
Test [15] has as its target human CD5 (Arg25-Pro372)-His protein (Acro, Cat. No. CD5-H52H5) (human) (UniProt P06127). Description: ELISA on hCD5-His, antibody 1 nM.
The target is the same in test [16]. Briefly: ELISA on hCD5-His, antibody 0.01 nM.
Test [17] addresses murine CD5-His (Sino Biologicals, Cat. No. 50403-M08H) (murine) (UniProt P13379). Description: ELISA on murine CD5-His, antibody 100.00 nM.
Test [18] has the same target. Briefly: ELISA on murine CD5-His, antibody 0.01 nM.
Test [19] addresses human CD5 (Arg25-Pro372)-His protein (Acro, Cat. No. CD5-H52H5) (human) (UniProt P06127). Description: ELISA on hCD5-His, antibody 0.1 nM.
For test [20], the target named is murine CD5-His (Sino Biologicals, Cat. No. 50403-M08H) (murine) (UniProt P13379). Briefly: ELISA on murine CD5-His, antibody 0.001 nM.
Test [21] shares this target. Description: ELISA on murine CD5-His, antibody 1.00 nM.

UniProt P13379, sequence (P13379 24-371 limits assumed, stated change not applied): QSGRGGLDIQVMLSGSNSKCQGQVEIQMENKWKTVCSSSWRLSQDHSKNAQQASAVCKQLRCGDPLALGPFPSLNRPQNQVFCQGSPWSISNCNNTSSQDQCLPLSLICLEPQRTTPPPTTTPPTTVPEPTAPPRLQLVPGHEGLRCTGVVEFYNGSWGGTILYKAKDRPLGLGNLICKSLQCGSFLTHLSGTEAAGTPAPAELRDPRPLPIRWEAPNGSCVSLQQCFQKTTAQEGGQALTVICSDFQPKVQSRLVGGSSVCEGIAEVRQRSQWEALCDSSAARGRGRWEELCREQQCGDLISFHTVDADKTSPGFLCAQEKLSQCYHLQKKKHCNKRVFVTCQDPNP
monkey CD5, full length, on HEK293T cells (monkey), sequence (chain, as listed by the source limits assumed): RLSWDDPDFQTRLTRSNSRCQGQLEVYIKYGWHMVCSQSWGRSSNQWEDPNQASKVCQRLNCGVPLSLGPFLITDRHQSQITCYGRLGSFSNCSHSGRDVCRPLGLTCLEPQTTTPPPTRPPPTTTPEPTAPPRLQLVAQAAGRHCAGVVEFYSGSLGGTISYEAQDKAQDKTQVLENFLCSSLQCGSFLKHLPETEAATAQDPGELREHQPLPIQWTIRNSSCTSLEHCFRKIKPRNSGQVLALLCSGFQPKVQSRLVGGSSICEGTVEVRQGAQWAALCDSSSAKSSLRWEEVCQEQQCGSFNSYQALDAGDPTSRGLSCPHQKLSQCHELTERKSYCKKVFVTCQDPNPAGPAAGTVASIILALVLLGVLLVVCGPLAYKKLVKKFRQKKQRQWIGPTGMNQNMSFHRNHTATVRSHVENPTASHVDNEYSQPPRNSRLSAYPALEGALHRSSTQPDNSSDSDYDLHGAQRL

For “Anti-HEL-hIgG1 (antibody against hen egg lysozyme, Biointron Cat. No. B117901)”, the OD450 in test [1] came out at 0.05 OD450; in test [2], 0.11 OD450; in test [3], 0.05 OD450; in test [5] it was 0.11 OD450; in test [7] it was 0.06 OD450; in [11] it was 0.05 OD450. Also, the OD450 stood at 0.12 OD450 in [13]; 0.05 OD450 in [15]; 0.05 OD450 in [16]; 0.12 OD450 in [17]; 0.11 OD450 in test [18]; 0.05 OD450 in test [19]. Further, the OD450 in test [20] and in test [21] was 0.11 OD450 throughout. Besides, the Mean fluorescence intensity of cells in [4] came to 65.9 MFI; in [6] it was 97 MFI; in test [8] it was 65.9 MFI; in [10], 65.9 MFI; in [14] it was 65.9 MFI. Also, the Max MFI was 62 MFI in test [6], 79 MFI in [9] and 93 MFI in test [12].
